From the supplement of paper PMC9732359
± gives the uncertainty stated by the source.

Assay: protein stability index of a GFP-peptide fusion (yeast GPS) (PSI 1-4); higher = more stable; sorted into four equal gates, so the index is relative within each strain
In short: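 Tiled 17-residue peptides from yeast proteins were fused downstream of GFP on a plasmid that also expresses Cherry, and the pooled library was carried in yeast. Mid-log cultures grown in leucine-free medium were sorted into four equal gates by GFP/Cherry fluorescence ratio. Plasmids from each gate were PCR-amplified and Illumina-sequenced, and reads were assigned to strains by barcodes. Each peptide's protein stability index is the sum, over gates, of the gate's read frequency multiplied by its gate number.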

Sequence	protein stability index (doa10∆)	protein stability index (pdr5∆)	protein stability index (san1∆)	protein stability index (ubr1∆)
IEPVTKVSSLKMFIQRI [YCS4]	2.91 ± 0.064	2.9 ± 0.065	3.17 ± 0.048	3.31 ± 0.065
SSKLYQMQQQQQAQAQA [GAL11]	1.89 ± 0.071	2.09 ± 0.051	1.9 ± 0.082	1.82 ± 0.057
PTTMVTNQKDTNDHVDK [ISW2]	1.96 ± 0.062	2.03 ± 0.064	1.67 ± 0.1	1.75 ± 0.055
KYKPTPLYVMDEIDAAL [SMC4]	2.45 ± 0.085	3.06 ± 0.11	3 ± 0.07	2.81 ± 0.057
HFLQFSELAGDEELEAE [PRP8]	3.33 ± 0.15	3.11 ± 0.27		
APLKHGVGILYKGMASN [BRR2]	1.93 ± 0.078	1.68 ± 0.076	1.38 ± 0.13	1.3 ± 0.11
RVVVPQALRVLRLKPGR [RPL16B]	1.24 ± 0.087	1.58 ± 0.06	1.36 ± 0.12	1.77 ± 0.1
NGVVIATEKKSSSPLAM [PRE8]	2.91 ± 0.19	3 ± 0.17	2.55 ± 0.26	3.07 ± 0.11
VSLSQLLFIVGQVAIKT [YCS4]	1.85 ± 0.062	2.27 ± 0.062	1.71 ± 0.088	2.13 ± 0.046
SQDTKVICSVTGPIEPK [RRP46]	1.68 ± 0.07	1.72 ± 0.072	1.94 ± 0.11	2.12 ± 0.076
GQVVLTPLTFALPRGAR [RPL14A]	1.5 ± 0.074	1.55 ± 0.071	1.18 ± 0.11	1.89 ± 0.073
EFFNPEIFHLLQPLEEG [SIN4]	1.88 ± 0.079	1.84 ± 0.064	1.59 ± 0.086	2.07 ± 0.056
DDSTKFQLVNDVMDELI [SIR3]	3.29 ± 0.15	3.37 ± 0.15	3.47 ± 0.1	3.39 ± 0.086
LDFIGRRGTALGIKKEK [RPB2]	1.68 ± 0.075	2.03 ± 0.097	2.27 ± 0.059	2.07 ± 0.08
KSDSQYRFYEYIYSQET [MED1]	2.81 ± 0.068	2.44 ± 0.061	2.74 ± 0.12	2.58 ± 0.07
KTSLMDLLVIDSHKRIP [SNU114]	2.43 ± 0.069	2.73 ± 0.078	2.74 ± 0.063	2.41 ± 0.054
DKLICSIDPPGCVDIDD [DIS3]	3.33 ± 0.068	3.11 ± 0.062	2.78 ± 0.068	3.14 ± 0.091
NSNQQQNPKLFQTIFSK [SIN4]	1.98 ± 0.093	2.19 ± 0.069	3.11 ± 0.1	2.42 ± 0.082
YTQQQALEYIGAKVKTM [RET1]	1.97 ± 0.063	2.34 ± 0.072	2.25 ± 0.086	2.1 ± 0.059
FAAKQRQELQMQRQQQG [SNF2]	2.66 ± 0.052	2.84 ± 0.046	2.71 ± 0.038	2.7 ± 0.045
EKLVSDLRLIKVPQQAA [SMC1]	3.19 ± 0.18	3.44 ± 0.16	2.16 ± 0.24	3.3 ± 0.14
GCLVKREDLNKAEYVDQ [RPO31]		3.13 ± 0.21		
LYQDMAARHRARFRSIH [RPL20A]	2.81 ± 0.071	2.71 ± 0.048	2.96 ± 0.051	2.95 ± 0.07
IRENKVTYSRVSKKVDV [BRN1]	2.76 ± 0.1	2.93 ± 0.11	2.94 ± 0.081	3.04 ± 0.087
NLLKVSVDICNNSKSRY [ECM29]	2.04 ± 0.07	2.2 ± 0.066	2.9 ± 0.052	2.02 ± 0.054
IYDKKDHKYVCTFSMEP [SRB8]	2.85 ± 0.076	2.99 ± 0.11	2.78 ± 0.06	3 ± 0.069
TNFNEITNTDETITTKR [SWP82]	3.13 ± 0.058	3.25 ± 0.061	3.08 ± 0.067	3.32 ± 0.045

Sequence	protein stability index (doa10∆)	protein stability index (pdr5∆)	protein stability index (san1∆)	protein stability index (ubr1∆)
KEDSTIQDSNGDVKNME [SWI3]	3.09 ± 0.11	3.38 ± 0.087	2.71 ± 0.093	3.17 ± 0.058
QIPVYDTFDGSDLRVLS [FAS1]	2.7 ± 0.081	2.92 ± 0.059	2.53 ± 0.069	2.69 ± 0.058
PISAVLRGCKFLQSVDI [GRR1]	2.08 ± 0.041	2.08 ± 0.053	1.83 ± 0.052	2.01 ± 0.036
FLHESSFDSIDHSWFLL [CSI1]	2.67 ± 0.075	2.93 ± 0.061	2.48 ± 0.072	2.87 ± 0.044
RIMEKSVILSVISMFVL [YML031W/NDC1]	1.31 ± 0.14	1.44 ± 0.1	1.17 ± 0.11	1.12 ± 0.049
SFHVQKKTCSSCGYPSA [RPL37B]	1.86 ± 0.08	2.18 ± 0.076	1.86 ± 0.12	2.19 ± 0.059
NEENDLDVDPAKRIRVS [RPB2]	3.01 ± 0.07	3 ± 0.07	3.11 ± 0.12	3.02 ± 0.047
MLWGGASMLGLFVFTEG [QCR10]	1.96 ± 0.14	1.82 ± 0.11	2.43 ± 0.26	3.19 ± 0.2
AAGVERLIFYPDEYEQL [PRE3]	2.96 ± 0.14	2.86 ± 0.13	3.1 ± 0.093	2.69 ± 0.16
SFSFLNRADGTGEAQVD [YLR335W/NUP2]		3.39 ± 0.23		2.78 ± 0.29
SYKDSGLWGFSTATRNV [COR1]	2.98 ± 0.086	3.11 ± 0.094	3.19 ± 0.064	3.16 ± 0.084
DLSVTPQKSSSKGFVFN [YAR002W/NUP60]	2.74 ± 0.089	3.06 ± 0.12	2.88 ± 0.057	3.06 ± 0.12
ERGHPKDNARIYQVPEK [POP1]	3.02 ± 0.082	3.02 ± 0.1	3 ± 0.093	3.11 ± 0.05
VRELVEKIDGMDVDSVK [RPC82]	2.99 ± 0.19	3.41 ± 0.27	3.34 ± 0.11	3.3 ± 0.064
EEDFYTVVGNASFGKNL [DSN1]	1.99 ± 0.12	1.38 ± 0.25	2.9 ± 0.23	3.12 ± 0.14
KEPVALIETVRQMKDVN [RPN2]	3.36 ± 0.059	3.41 ± 0.067	3.15 ± 0.051	3.31 ± 0.041
DSETSDPNEVEIKKLLA [DIS3]	2.9 ± 0.075	3.07 ± 0.069	2.82 ± 0.075	3.27 ± 0.094
NSSESDEEESNDEKQKA [RPN13]	3.32 ± 0.17	2.43 ± 0.21		3.41 ± 0.088
SENVFEGLTYKYPARRI [SSN3]	3.18 ± 0.11	3 ± 0.17	2.62 ± 0.17	2.86 ± 0.089
IIDEIITQMRVNDEEEH [RPC82]	3 ± 0.084	2.54 ± 0.071	3.54 ± 0.12	2.19 ± 0.079
STVKGSVDLEKLAFGLT [TAF14]	3.58 ± 0.13	3.45 ± 0.091	3.61 ± 0.057	3.67 ± 0.072
GSLARAGKVKSQTPKVE [RPS30A]	2.71 ± 0.06	2.7 ± 0.069	2.69 ± 0.058	2.57 ± 0.05
ASSGPRYIVGVRNSVDR [RPT4]	1.29 ± 0.12	1.42 ± 0.19		1.37 ± 0.092
FKYRKARLEPGTAIGAI [RPO31]	2.73 ± 0.16	1.99 ± 0.092	2.17 ± 0.1	2.33 ± 0.057
TPVSHNDDLYGKVTDVR [RPL1A]	3.04 ± 0.091	3.04 ± 0.096	2.81 ± 0.067	3.12 ± 0.084
QGSMSERPPYILNSYGV [SIR2]	2.73 ± 0.072	3.03 ± 0.084	3 ± 0.066	2.87 ± 0.045
